Numbering of substitutions follows the chain as printed.
Legend:
[1] = system: T1, human FEAT D274A/D288A mutant
T1 sequence: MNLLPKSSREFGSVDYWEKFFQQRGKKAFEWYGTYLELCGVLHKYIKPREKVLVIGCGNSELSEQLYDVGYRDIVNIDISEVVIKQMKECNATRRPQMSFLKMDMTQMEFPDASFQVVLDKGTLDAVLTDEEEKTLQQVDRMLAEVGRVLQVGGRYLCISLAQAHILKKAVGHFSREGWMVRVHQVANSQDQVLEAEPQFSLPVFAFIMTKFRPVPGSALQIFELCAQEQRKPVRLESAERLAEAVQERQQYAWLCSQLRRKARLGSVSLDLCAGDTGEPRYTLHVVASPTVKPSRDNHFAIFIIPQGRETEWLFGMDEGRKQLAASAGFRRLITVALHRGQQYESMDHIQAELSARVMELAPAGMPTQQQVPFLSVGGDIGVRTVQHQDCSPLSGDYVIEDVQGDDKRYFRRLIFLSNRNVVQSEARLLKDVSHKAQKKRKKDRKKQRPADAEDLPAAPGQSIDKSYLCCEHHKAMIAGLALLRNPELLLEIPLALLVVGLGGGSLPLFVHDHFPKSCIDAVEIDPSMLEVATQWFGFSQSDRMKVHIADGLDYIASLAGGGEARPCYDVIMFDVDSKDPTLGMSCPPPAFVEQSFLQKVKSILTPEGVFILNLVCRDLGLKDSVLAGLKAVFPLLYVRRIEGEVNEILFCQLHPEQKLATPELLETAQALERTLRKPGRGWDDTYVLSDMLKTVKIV

[2] = system: T2, human FEAT protein (faint expression in normal tissues, aberrant overexpression in tumors)
T2 sequence: T1 sequence with A274D, A288D

Substance	caspase-3 cleavage of FEAT with Asp-to-Ala mutations in the cleavage sites [1]	cleavage of in vitro transcribed/translated [35S]-FEAT (SDS-PAGE, autoradiography) [2]
His-tagged recombinant caspase-3	are resistant to caspase-3 cleavage	FEAT transcribed/translated in vitro was cleaved by caspase-3, but not by caspase-6
His-tagged recombinant caspase-6	–	FEAT transcribed/translated in vitro was cleaved by caspase-3, but not by caspase-6

— patent US20130212721
